Results as given in article PMC8092703, “Structural Basis for the Shared Neutralization Mechanism of Three Classes of Human Papillomavirus Type 58 Antibodies with Disparate Modes of Binding” (Journal of Virology, 2021).

T1: HPV58 pseudovirus (PsV58) capsid (human papillomavirus type 58, UniProt P26535 1-524; P26538 1-472)
T1 sequence 1: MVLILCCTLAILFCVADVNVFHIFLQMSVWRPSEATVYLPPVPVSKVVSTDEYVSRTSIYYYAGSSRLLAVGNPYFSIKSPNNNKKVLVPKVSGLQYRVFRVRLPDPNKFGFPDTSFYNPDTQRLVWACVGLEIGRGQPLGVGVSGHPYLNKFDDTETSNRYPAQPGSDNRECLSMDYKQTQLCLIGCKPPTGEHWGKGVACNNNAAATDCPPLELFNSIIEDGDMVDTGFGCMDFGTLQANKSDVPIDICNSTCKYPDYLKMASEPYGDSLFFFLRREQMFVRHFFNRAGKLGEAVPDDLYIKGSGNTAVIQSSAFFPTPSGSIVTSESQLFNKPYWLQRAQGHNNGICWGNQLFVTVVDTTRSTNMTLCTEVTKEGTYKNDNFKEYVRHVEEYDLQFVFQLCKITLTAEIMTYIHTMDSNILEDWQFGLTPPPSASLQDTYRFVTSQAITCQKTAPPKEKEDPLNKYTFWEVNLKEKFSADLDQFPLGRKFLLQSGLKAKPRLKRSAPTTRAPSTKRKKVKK
T1 sequence 2: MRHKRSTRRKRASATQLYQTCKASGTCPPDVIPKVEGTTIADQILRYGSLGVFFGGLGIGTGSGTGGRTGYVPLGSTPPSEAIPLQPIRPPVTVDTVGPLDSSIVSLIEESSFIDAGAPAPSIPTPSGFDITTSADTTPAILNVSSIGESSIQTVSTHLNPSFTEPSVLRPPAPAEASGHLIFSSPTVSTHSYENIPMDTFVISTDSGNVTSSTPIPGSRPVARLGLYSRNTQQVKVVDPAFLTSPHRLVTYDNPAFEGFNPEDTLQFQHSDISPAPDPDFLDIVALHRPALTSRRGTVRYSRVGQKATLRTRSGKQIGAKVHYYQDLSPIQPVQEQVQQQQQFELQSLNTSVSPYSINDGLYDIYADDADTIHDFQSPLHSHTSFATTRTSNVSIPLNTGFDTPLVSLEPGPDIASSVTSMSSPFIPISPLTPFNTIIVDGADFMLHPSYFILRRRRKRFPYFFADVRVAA

B1: nAb 2H3 (anti-HPV58 neutralizing monoclonal antibody, full length) (antibody, V domains shown)
VH: QVQLLQSGAELVRPGSSVKISCKASGYVFTSYWMHWVKQRPGQGLEWIGQIYPGDGGTHYNGNFRDKATLTADKSSSTAYMHLSSLTSEDSAVYFCARKIYDGYGFSYWGQGTLVTVS
VL: DIQMTQSPASLSVSVGETVTITCRASENIYSNLIWYQQKQGKSPQLLVYAATNLADGVPSRFSGSGSGTQYSLKINSLQSEDFGSYYCQHFWGTPLTFGAGTKLEIKR
notes: variable domain of the heavy chain of nAb 2H3; variable domain of the light chain of nAb 2H3; Mouse IgG1; source: mouse hybridoma, ascites of BALB/c mice, purified (protein A-agarose)
B2: Fab fragment of nAb 2H3 (Fab, V domains shown)
VH: B1 VH
VL: B1 VL
notes: variable domain of the heavy chain of nAb 2H3; variable domain of the light chain of nAb 2H3; Fab of a mouse IgG1; the Fab model in the structure is a homology model; also called Fab 2H3; 2H3 Fab; source: papain digest of the purified nAb, separated from Fc on a TSKgel DEAE-5PW column
B3: nAb A4B4 (anti-HPV58 neutralizing monoclonal antibody, full length) (antibody, V domains shown)
VH: QVTLKESGPGILQPSQTLSLTCSFSGFSLSTSGMGVGWIRQPSGKGLEWLAHIWWNDDKNYHPALKSRLTISKDTSSNRVFLNIASVDTADTATYYCARIHYVTDALDYWGQGTSVTVS
VL: DIVMSQSPSSLAVSVGEKVTMSCKSSQSLLYSSIQKNYLAWYQQKPGQSPKLLIYWASIRESGVPDRFTGSGSGTDFTLTISSVKAEDLAVYYCQRYYGYPWTFGGGTKLEIKR
notes: variable domain of the heavy chain of nAb A4B4; variable domain of the light chain of nAb A4B4; Mouse IgG2a; source: mouse hybridoma, ascites of BALB/c mice, purified (protein A-agarose)
B4: Fab fragment of nAb A4B4 (Fab, V domains shown)
VH: B3 VH
VL: B3 VL
notes: variable domain of the heavy chain of nAb A4B4; variable domain of the light chain of nAb A4B4; Fab of a mouse IgG2a; the Fab model in the structure is a homology model; also called Fab A4B4; A4B4 Fab; source: papain digest of the purified nAb, separated from Fc on a TSKgel DEAE-5PW column
B5: nAb 5G9 (anti-HPV58 neutralizing monoclonal antibody, full length) (antibody, V domains shown)
VH: EVMLVESGGGLVKPGGSLKLSCVASGFTFSDYAMSWGRQTPEKRLEWVATISSGGVSTYHPDSVKGRFTMSRDNAKNTLYLQMSSLRSEDTAKYYCARGGGRYAMDYWGQGTSVTVS
VL: DVQITQSPSYLAASPGETITINCRASKSINKYLAWYQEKPGTTNKLLIYSGSTLQSGIPSRFSGRGSGTDFTLTISSLEPEDLAVYYCQQYNEYPWTFGGGTKLEIKR
notes: variable domain of the heavy chain of nAb 5G9; variable domain of the light chain of nAb 5G9; Mouse IgG2a; source: mouse hybridoma, ascites of BALB/c mice, purified (protein A-agarose)
B6: Fab fragment of nAb 5G9 (Fab, V domains shown)
VH: B5 VH
VL: B5 VL
notes: variable domain of the heavy chain of nAb 5G9; variable domain of the light chain of nAb 5G9; Fab of a mouse IgG2a; the Fab model in the structure is a homology model; also called Fab 5G9; 5G9 Fab; source: papain digest of the purified nAb, separated from Fc on a TSKgel DEAE-5PW column

Assays:
[1] = target: T1, HPV58 pseudovirus (PsV58) capsid; assay: cell-based or functional assay
[2] = target: HPV58 virus-like particles (VLPs) self-assembled from recombinant HPV58 L1 (human papillomavirus type 58, UniProt P26535 1-524, The printed source is GenBank AFS33402.1, which may differ from P26535 at isolate-variant positions. The start is taken by convention at MSVWRPSE (Met27 of P26535), and paper numbering + 26 = P26535 n); assay: ELISA; inhibition ELISA; HPV58 VLPs coated; diluted monoclonal antibody 1 h at 37°C, then rabbit standard antiserum against HPV58 VLPs 30 min at 37°C; HRP goat anti-rabbit IgG; inhibition rate; conditions: both partners purified
[3] = target: T2, HPV58 pseudovirus (PsV58) capsid (human papillomavirus type 58, UniProt P26535 1-524; P26538 1-472, T=7d capsid of 72 L1 pentamers. L2 copy number is unknown and no L2 density was seen. Expressed from p58sheLL, whose L1 and L2 may carry isolate-variant residues.); assay: cryo-EM structure; purified PsV58 mixed with Fab in 1.5-fold excess (pseudovirus-Fab molar ratio 1:540), 37°C for 2 h; icosahedral and 2-fold subparticle reconstruction; conditions: both partners purified
[4] = target: T2, HPV58 pseudovirus (PsV58) capsid; assay: cell-based or functional assay

| Binder | neutralization titer, pseudovirus-based neutralization assay in 293FT cells (first well 1 μg/ml nAb, 2-fold dilutions) [1] | inhibition rate of the nAb against rabbit antiserum to HPV58 VLPs [2] [%] | stoichiometry N [3] | IC50 of neutralization of PsV58 by the Fab form [4] [µg/mL] |
| --- | --- | --- | --- | --- |
| B1 | 51200 | 87 |  |  |
| B2 |  |  | 4 Fabs per asymmetric unit |  |
| B3 | 12800 | 71 |  |  |
| B4 |  |  | 4 Fabs per asymmetric unit | 1.28 |
| B5 | 410000 | 59 |  |  |
| B6 |  |  | 1 Fab per capsomer |  |
